Reference: the supplement of paper PMC7125110
± gives the standard error. Fewer inactive variants are shown than the library holds.

B1: glmS ribozyme (parent)
chain: AUAAAAGCGCCAGAACUACAGAAAUGUAGUUGACGAGGAGGAGGUUUAUCGAAUUUUCGGCGGAUGCCUCCAAA

Columns and labels:
Conditions in all cases: with glucosamine-6-phosphate
glucosamine-6-phosphate [1] = variants of: B1; test: self-cleavage kobs at 40 uM GlcN6P; higher = faster cleavage; RNA array
Summary of the method: (§1)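 Glucosamine-6-phosphate (40 μM to 10 mM) in HEPES/KCl/Mg(OAc)2 buffer was flowed over sequenced MiSeq chips, and tiles were imaged over ~14 h. Barcoded ribozyme variants there had been transcribed in situ by E. coli RNA polymerase and were tracked through a hybridised Cy3 probe at 37 °C. One- or two-exponential decay fits to per-tile medians, normalised to baseline and to non-cleaving reference variants, gave kobs. kcat and KM came from weighted Michaelis–Menten fits across concentrations.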

glucosamine-6-phosphate [2] = variants of: B1; test: self-cleavage kobs at 10000 uM GlcN6P; higher = faster cleavage; RNA array
Summary of the method: as §1

glucosamine-6-phosphate [3] = variants of: B1; test: self-cleavage kobs at 160 uM GlcN6P; higher = faster cleavage; RNA array
Summary of the method: as §1

glucosamine-6-phosphate [4] = variants of: B1; test: self-cleavage kobs at 640 uM GlcN6P; higher = faster cleavage; RNA array
Summary of the method: as §1

glucosamine-6-phosphate [5] = variants of: B1; test: self-cleavage kobs at 2500 uM GlcN6P; higher = faster cleavage; RNA array
Summary of the method: as §1

Variant | self-cleavage kobs at 40 uM GlcN6P (glucosamine-6-phosphate [1]) | self-cleavage kobs at 10000 uM GlcN6P (glucosamine-6-phosphate [2]) | self-cleavage kobs at 160 uM GlcN6P (glucosamine-6-phosphate [3]) | self-cleavage kobs at 640 uM GlcN6P (glucosamine-6-phosphate [4]) | self-cleavage kobs at 2500 uM GlcN6P (glucosamine-6-phosphate [5])
AUAAAAGCGCCACAAUUACAGAAAUGUAGUUGACGAGGAGGAGGUUUAUCGAAUUUUCGGCGGAUGACUCCAAA [G13C C16U C67A] | < 1e-05 s⁻¹ | 3.41e-05 ± 1.2e-05 s⁻¹ |  |  | 
AUAAAAGCGCCAGAACUACAGAAAUGUAGUUGACCAGGAGGAGGUUUAUCGAAUUUUCGGCGGACGCCUCCAAA [G35C U65C] | < 1e-05 s⁻¹ | < 1e-05 s⁻¹ | < 1e-05 s⁻¹ | < 1e-05 s⁻¹ | < 1e-05 s⁻¹
AUAAAAGCGCCAGAACUACAGAAAUGUAGUUGACGAGGAGGAGGAUUAUCGAAUUUUCGGCGGAUGCCUUCAAA [U45A C70U] | 0.00112 ± 0.00012 s⁻¹ | 0.0102 ± 0.0018 s⁻¹ | 0.00187 ± 0.00068 s⁻¹ | 0.00199 ± 0.00047 s⁻¹ | 0.0203 ± 0.0092 s⁻¹
AUAAAAGCGCCAGGACUACAGAAAUGUAGUUGAAGAGUAGGAGGUUUAUCGAAUUUUCGGCGGAUGCCUCCAAA [A14G C34A G38U] | < 1e-05 s⁻¹ |  |  |  | 
AUAAAAGCGCCAGAACUACAGAAAUGUAGAUGACGAGAAGGAGGUUUAUCGAAUUUUCGGCGGACGCCUGCAAA [U30A G38A U65C C70G] | < 1e-05 s⁻¹ | < 1e-05 s⁻¹ |  | < 1e-05 s⁻¹ | 
AUAAAGGCGCCAGAACUACAGAAAUGUAGUUGCCGAGGAGGAGGUUUAUCGAAUUUUCGGCGGAUGCCUCCAAA [A6G A33C] | < 1e-05 s⁻¹ | < 1e-05 s⁻¹ | < 1e-05 s⁻¹ | < 1e-05 s⁻¹ | < 1e-05 s⁻¹
AUAAAAGAGCCAGAACUACAGAAAUGUAGUGGACGAGGAGGAGGUUUAUCGAAUUUUCGGCGGAUGCCUCCAAA [C8A U31G] | < 1e-05 s⁻¹ | < 1e-05 s⁻¹ | < 1e-05 s⁻¹ | < 1e-05 s⁻¹ | < 1e-05 s⁻¹
AUAAAAGCGCUAGAACUACAGAAAUGUAGUUGACGAGGAGGACGUUUAUCGAAUUUUCGGCGGAUGCCUCCAAA [C11U G43C] | < 1e-05 s⁻¹ |  | < 1e-05 s⁻¹ | < 1e-05 s⁻¹ | < 1e-05 s⁻¹
AUAAAAGCGCCAGAACUACAGAAAUGUAGUUGACGAGGAGGCGGUUUAUCGAAUUUUCGGCGGAUCCCUCCAAA [A42C G66C] | < 1e-05 s⁻¹ | < 1e-05 s⁻¹ | < 1e-05 s⁻¹ | < 1e-05 s⁻¹ | < 1e-05 s⁻¹
AUAAAAGCGCCAGAACUACAGAAAUGUAGUUGACGAGGAUGAGGUUUAUCGAAUUUUCGGCGGAUGUCUACAAA [G40U C67U C70A] | < 1e-05 s⁻¹ |  |  |  | 
AUAAAAGCGCCAGAAAUACAGAAAUGUACUUGACGAUGAGGAGGUUUAUCGAAUUUUCGGCGGAUGCCUCCAAA [C16A G29C G37U] | < 1e-05 s⁻¹ |  |  |  | < 1e-05 s⁻¹
AUAAAAGCGCCACAACUACAGAAAUGUAGUUGACGAGGUGGAGGUUUAUCGAAUUUUCUGCGGAUGCCUCCAAA [G13C A39U G59U] | < 1e-05 s⁻¹ |  |  |  | 
AUAAAAGCGCCAGAACUACAGAAAUGUAGUUGAAGAGAAGGAGGUUUAUCGAAUUUUCGGCGGAUGCCUCCAAA [C34A G38A] | < 1e-05 s⁻¹ | < 1e-05 s⁻¹ | < 1e-05 s⁻¹ |  | < 1e-05 s⁻¹
AUAAAAGCGCCAGAACUACAGAAAUGUAGUUGAAGAGGAGGAGGUUUAUCGAAUUUUUGGCGGAUGCCUCCAAA [C34A C58U] | < 1e-05 s⁻¹ | < 1e-05 s⁻¹ | < 1e-05 s⁻¹ | < 1e-05 s⁻¹ | < 1e-05 s⁻¹
AUAAAAGCGCCAGAACUACAGAAAUGUAGUUGACGAGGAGGAGCUUUAUCGAAUUUUCGGCGGAUGCAUCCAAA [G44C C68A] | < 1e-05 s⁻¹ | < 1e-05 s⁻¹ | < 1e-05 s⁻¹ | < 1e-05 s⁻¹ | < 1e-05 s⁻¹
AUAAAAGCGCCAGAACUACAGAAAUGUAGUUGACGAGGAGGAGGUUUAUCCACUUUUCGGCGGAUGCCUCCAAA [G51C A53C] | < 1e-05 s⁻¹ |  |  | < 1e-05 s⁻¹ | 
AUAAAAGCGCCAGAACUACAGAAAUGUAGUUAACGAGGAGGAGGUUUAUCGAUUUUUCGGCGGACGCCUCCAAA [G32A A53U U65C] | < 1e-05 s⁻¹ |  | < 1e-05 s⁻¹ | < 1e-05 s⁻¹ | 
AUAAAAACGCCAGAACUACAGAAAUGUAGGUGACGAGGAGCAGGUUUAUCGAAUUUUGGGCGGAUACCUCCAAA [G7A U30G G41C C58G G66A] | < 1e-05 s⁻¹ |  |  |  | 
AUAAAAGCGCCAGAACUACAGAAAUGUAGUUGACGAGGAGGAAGUUUAUCGAAUUUUCCGCGGAUGCCUCCAAA [G43A G59C] | < 1e-05 s⁻¹ | < 1e-05 s⁻¹ | < 1e-05 s⁻¹ | < 1e-05 s⁻¹ | 
AUAAAAGCGCCAGAGCUACAGAAAUGUAGUUGACGAGGAGGAGGUUUAUCGAAUUUUCGGCGGACGCCACCAAA [A15G U65C U69A] | < 1e-05 s⁻¹ |  |  |  | 
AUAAAAGCGCCAGAACUACAGAAAUGUAGUUGCCGAGGAAGAGGUUUAUCGAAUUUUCGGCGGAUGGCUCCAAA [A33C G40A C67G] | < 1e-05 s⁻¹ |  |  |  | 
AUAAAAGUGCUAGAACUACAGAAAUGUAGUUGACGAGGAGGAGGUUUAUCGAAUUUGCGGCGGAUGGCUCCAAA [C8U C11U U57G C67G] | 0.000617 ± 0.0003 s⁻¹ | 0.000608 ± 0.00023 s⁻¹ |  | 7.99e-05 ± 3.8e-05 s⁻¹ | 
AUAAAAGCGCCAGAACUACAGAAAUGUAGUUGACGAGGAGGAGGGUUUUCGAAUUUUCGGCGGAUGCCUCGAAA [U45G A48U C71G] | < 1e-05 s⁻¹ |  |  |  | 
AUAAAAGCGCCAGAACUACAGAAAUGUAGUUGAUGAGGAGGAGGUUUAUCUAAUUUUCGGCGGAUGCCUCCAAA [C34U G51U] | < 1e-05 s⁻¹ |  | < 1e-05 s⁻¹ | < 1e-05 s⁻¹ | 
AUAAAAUAGCCAGAACUACAGAAAUGUAGUUGUCGAGGAGGAAGUUUAUCGAAUAUUCGGCGGAUGCCUCCAAA [G7U C8A A33U G43A U55A] | < 1e-05 s⁻¹ | < 1e-05 s⁻¹ |  | < 1e-05 s⁻¹ | < 1e-05 s⁻¹
